Data from PMC3306812 (Molecular Cell, 2012).

Target: full-length OTUB1 (human, UniProt Q96FW1 1-271)
Test: NMR titration

Sequence of full-length OTUB1 (Q96FW1 whole entry): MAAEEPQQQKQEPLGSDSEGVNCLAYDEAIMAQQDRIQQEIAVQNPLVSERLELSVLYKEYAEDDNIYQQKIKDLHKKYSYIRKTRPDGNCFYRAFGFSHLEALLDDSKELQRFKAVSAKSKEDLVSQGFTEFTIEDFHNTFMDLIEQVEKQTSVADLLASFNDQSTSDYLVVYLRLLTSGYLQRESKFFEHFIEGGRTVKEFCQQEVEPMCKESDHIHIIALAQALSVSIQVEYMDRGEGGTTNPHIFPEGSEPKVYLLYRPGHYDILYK

B1: UBC13 (enzyme, UniProt P61088 1-152, looked up)
chain: MAGLPRRIIKETQRLLAEPVPGIKAEPDESNARYFHVVIAGPQDSPFEGGTFKLELFLPEEYPMAAPKVRFMTKIYHPNVDKLGRICLDILKDKWSPALQIRTVLLSIQALLSAPNPDDPLANDVAEQWKTNEAQAIETARAWTRLYAMNNI
B1: binds.
